The values that follow come from patent US20250339569A1 (3B PHARMACEUTICALS, published 2025).

Assay [1] concerns the target human carbonic anhydrase IX (CAIX) (human, UniProt Q16790 38-459). Description: FACS competition, HT-29 cells, tracer 3BP-2776; pIC50 category A: >8.0. On the procedure: (§1) CAIX-expressing human HT-29 colorectal cancer cells (DSMZ, RRID: CVCL_0320) were cultured in McCoys's 5A modified medium (Biochrom, #F1015) including 10% fetal calf serum (FCS), 2 mM L-glutamine, 100 U/ml penicillin and 100 μg/mL streptomycin. Cells were detached with Accutase (Biolegend, #423201) and washed in FACS buffer (PBS including 1% FCS). Cells were diluted in FACS buffer to a final concentration of 500.000 cells per ml. 200 μL of the cell suspension were transferred to a u-shaped non-binding 96-well plate (Greiner) and cells were washed in ice-cold FACS buffer.
(§2) When biotinylated compounds were used an additional incubation step with 1 μg/mL APC-Streptavidin (Miltenyi; #130-106-791) in 50 μL FACS buffer for 30 minutes on ice was performed.
(§3) Cells were washed twice with ice-cold FACS buffer and analyzed in an Attune NxT flow cytometer (Thermo Fisher). Median fluorescence intensities (MFI) of the APC/Cy5-channel were calculated by Attune NxT software.

The target of assay [2] is T1, Fc-fusion protein of human carbonic anhydrase IX (human, UniProt Q16790 38-414). Description: SPR, captured hCAIX-Fc; t1/2 category A: >15.0 min.
Assay [3] deals with T1, Fc-fusion protein of human carbonic …. Description: SPR, captured hCAIX-Fc; pKD category A: >8.0. In general terms: In SPR one partner is held on a chip, and binding of the other changes the refractive index at the surface.
Assay [4] concerns the target human carbonic anhydrase 9 (CAIX) (human, UniProt Q16790 38-459). Description: FACS competition on HT-29 cells against tracer 3BP-2776; pIC50 category B = pIC50 7.1-8.0. On the procedure: as §1, §2, §3

Starred links: 1 amine or outer side, 2 acyl side, 3 side chain; linkers in the order of their positions; H or OH if unused. Positions of bridges follow the written chain, without caps; N, C: chain ends. Non-standard residues stand in square brackets, D forms with d. Primed or numbered codes have the meaning given here. *: point of attachment. Aph(SaPr) = 4-amino-L-phenylalanine, ring amine acylated by 3-sulfamoylpropanoic acid, NS(=O)(=O)CCC(=O)Nc1ccc(C[C@H](N[*:1])C(=O)[*:2])cc1; Phe(3-NHCO(CH2)3SO2NH2) = N[C@@H](Cc1cccc(NC(=O)CCCS(N)(=O)=O)c1)C(=O)O; DOTA = O=C(O)CN1CCN(CC(=O)O)CCN(CC(=O)*)CCN(CC(=O)O)CC1; PPAc = 4-carboxymethyl piperazine linker; mXylylene = c1cc(C[*:1])cc(C[*:2])c1; tBuAla = CC(C)(C)C[C@H](N)C(=O)O; Tle = CC(C)(C)[C@H](N)C(=O)O; PPAc″ = not defined here; Dap = NC[C@H](N)C(=O)O; Rni = not defined here

B1: 3BP-4448 (peptide)
peptide: {DOTA-PPAc″}-YCE[dP]D[Phe(3-NHCO(CH2)3SO2NH2)]LTWSC-NH2
modifications: linker 2-11 via mXylylene; reading uncertain
For B1, the pIC50 in assay [1] was over 8 pic50. In addition, the “t1/2 (half-life of the complex, SPR)” value in assay [2] is over 15 min. The pKD in assay [3] is over 8 pkd.

B2: 3BP-4450 (peptide)
peptide: {DOTA-PPAc″}-SCE[dP]D[Phe(3-NHCO(CH2)3SO2NH2)]LTWSC-NH2
modifications: linker 2-11 via mXylylene; reading uncertain
B2 registered a pIC50 in assay [1] of over 8 pic50.

B3: 3BP-4455 (peptide)
peptide: {DOTA-Rni}-YCE[dP]D[Phe(3-NHCO(CH2)3SO2NH2)]LTWSC-NH2
modifications: linker 2-11 via mXylylene; reading uncertain
B3 displayed a pIC50 in assay [1] of over 8 pic50. The “t1/2 (half-life of the complex, SPR)” value in assay [2] was over 15 min. The pKD in assay [3] is over 8 pkd.

B4: 3BP-4451 (peptide)
peptide: {DOTA-PPAc″}-RCE[dP]D[Phe(3-NHCO(CH2)3SO2NH2)]LTWSC-NH2
modifications: linker 2-11 via mXylylene; reading uncertain
With B4, the pIC50 in assay [1] was over 8 pic50.

B5: 3BP-4504 (peptide)
peptide: {DOTA-PPAc}-ECE[dP]D[Aph(SaPr)]LTW[Dap]C-NH2
modifications: lactam 1-10; linker 2-11 via mXylylene
With B5, the pIC50 in assay [1] is over 8 pic50. The “t1/2 (half-life of the complex, SPR)” value in assay [2] was over 15 min. The same molecule showed a pKD in assay [3] of over 8 pkd.

B6: 3BP-4505 (peptide)
peptide: {DOTA}-ECE[dP]D[Aph(SaPr)]LTW[Dap]C-NH2
modifications: lactam 1-10; linker 2-11 via mXylylene
SMILES: CC(C)C[C@@H]1NC(=O)[C@H](Cc2ccc(NC(=O)CCS(N)(=O)=O)cc2)NC(=O)[C@H](CC(=O)O)NC(=O)[C@H]2CCCN2C(=O)[C@H](CCC(=O)O)NC(=O)[C@@H]2CSCc3cccc(c3)CSC[C@@H](C(N)=O)NC(=O)[C@H](CNC(=O)CC[C@H](NC(=O)CN3CCN(CC(=O)O)CCN(CC(=O)O)CCN(CC(=O)O)CC3)C(=O)N2)NC(=O)[C@H](Cc2c[nH]c3ccccc23)NC(=O)[C@H]([C@@H](C)O)NC1=O
For B6, the pIC50 in assay [1] was over 8 pic50. In addition, the “t1/2 (half-life of the complex, SPR)” value in assay [2] was over 15 min. Further, the pKD in assay [3] was over 8 pkd.

B7: 3BP-4449 (peptide)
peptide: {DOTA-PPAc″}-YCE[dP]D[Phe(3-NHCO(CH2)3SO2NH2)][tBuAla]TWSC-NH2
modifications: linker 2-11 via mXylylene; reading uncertain
In turn, B7 registered a pIC50 in assay [1] of over 8 pic50.

B8: 3BP-3066 (peptide)
peptide: Ac-VYCEGDW[Tle]TWQC-NH2
modifications: linker 3-12 via mXylylene
SMILES: CC(=O)N[C@H](C(=O)N[C@@H](Cc1ccc(O)cc1)C(=O)N[C@H]1CSCc2cccc(c2)CSC[C@@H](C(N)=O)NC(=O)[C@H](CCC(N)=O)NC(=O)[C@H](Cc2c[nH]c3ccccc23)NC(=O)[C@H]([C@@H](C)O)NC(=O)[C@H](C(C)(C)C)NC(=O)[C@H](Cc2c[nH]c3ccccc23)NC(=O)[C@H](CC(=O)O)NC(=O)CNC(=O)[C@H](CCC(=O)O)NC1=O)C(C)C
notes: also called Ac-Val-Tyr-[Cys(3MeBn)-Glu-Gly-Asp-Trp-Tle-Thr-Trp-Gln-Cys]-NH2
As for B8, the pIC50 in assay [4] lay within 7.1 to 8 pic50.

B9: 3BP-4502 (peptide)
peptide: {DOTA-PPAc}-ECE[dP]D[Phe(3-NHCO(CH2)3SO2NH2)]LTW[Dap]C-NH2
modifications: lactam 1-10; linker 2-11 via mXylylene
As to B9, the pIC50 in assay [1] is over 8 pic50. In addition, in assay [2], the “t1/2 (half-life of the complex, SPR)” value was over 15 min. The molecule also gave a pKD in assay [3] of over 8 pkd.
